Assay results: the supplement of paper PMC11502859

System: HEK293T
Test: median enrichment of reporter reads in eGFP-reduced (low/intermediate) vs eGFP-high sorted cells (eGFP-extension fusion abundance) (ratio); higher = stronger loss of eGFP-fusion protein abundance (more destabilising extension)
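Note: lentiviral eGFP-IRES-mCherry reporter pool sorted by FACS 96 h post-transduction, gated on mCherry-high cells, Illumina read counts normalized per million, median across four biological replicates.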

Question: With “KVPMSQPGLWLPSIPSPEMAPWDEEGRVGCWCRIKIWQDRLPQGHRPLPPTRTPPTQLPLRVL [ITGA7]” as the substance, how does the median enrichment read?
Answer: The median enrichment was 17.1.

Question: For “LAAGVAMMGWSSLGQGVLGPTPTPPPRHHFPSRFLRLDLGSPLPVMHSCPGPTSPSLTSLELWPPRKGPIQPRLFTEVVLFMK [SCN1B]”, which median enrichment is on record?
Answer: The median enrichment was 4.89.

Question: Which median enrichment does the source give for LAAHPASSHVVWEQRDSHLRGGV [RASAL3] here?
Answer: Its median enrichment is 2.07.

Question: For “LAASRATSPHVGCPSWGREGQSVGWLGRGLALVGQPTPQPERA [RBM10]”, which median enrichment is on record?
Answer: The median enrichment was 8.96.

Question: For “LAAWDRSTNYTGSGIRVSKMSYECRSEGHMLTLESVER [NLRP7]”, which median enrichment is on record?
Answer: Its median enrichment is 13.6.

Question: Which median enrichment does the source give for LACPFCPVGPQAHSGVTEA [TLX1] here?
Answer: Its median enrichment is 6.73.

Question: With LADI [MED30] as the substance, how does the median enrichment read?
Answer: The median enrichment was 0.335.

Question: For LADP [AKAP4], which median enrichment is on record?
Answer: Its median enrichment is 0.662.

Question: For “LAEDPADPYLEEEEKQERESHSQPAIGSNWTTCGMDLETSTSPNTSPLPRAGPVHALP [CYFIP2]”, which median enrichment is on record?
Answer: Its median enrichment is 1.33.

Question: How did the median enrichment turn out when LAEEVGMGALCLLC [FGA] was run?
Answer: Its median enrichment is 11.4.

Question: “LAFRLALAPGTRSPRAPGPLPAPAAPSPSPGCVSLPMTLSWGPPARPGTFLPNPQTHDSLPHRLPQRPPTHFILSGHPSDLDP [SCRT2]” was tested. Which median enrichment did it give?
Answer: Its median enrichment is 3.18.

Question: “LAGAAGVPPAPGPWVSAARPPPVPAVLSVHWGPSVVPFVENLLHKALLNCLELGTSIPMETSPVWGTWRICQRLSDMGPWQFY [NYNRIN]” was tested. Which median enrichment did it give?
Answer: Its median enrichment is 6.95.

Question: LAGVFVPVSLILSRH [KCNS3] was tested. Which median enrichment did it give?
Answer: Its median enrichment is 5.72.

Question: Which median enrichment does the source give for LAGWDHPPAPQLHALP [INSYN2B] here?
Answer: The median enrichment was 0.774.

Question: LAHEPTRMSSDFQPHPSGSCAKGGGRR [TREM1] was tested. Which median enrichment did it give?
Answer: The median enrichment was 0.974.

Question: With “LAHPKYACHLRPQAGHTGQPACRQDLPASSSQYSLQRLKCEAPAPPSALQPTGPGRTCPLSVSPSRVPRWRPLSTG [PAK6]” as the substance, how does the median enrichment read?
Answer: Its median enrichment is 3.88.

Question: Which median enrichment does the source give for “LALLSRWGLPETVCFVSPTTITATWLLPCGRRVTG [SF3B3]” here?
Answer: The median enrichment was 34.6.

Question: With LALYLGSGQELHLGTNSC [ABCF2] as the substance, how does the median enrichment read?
Answer: The median enrichment was 6.15.

Question: For LANAS [NXF1], which median enrichment is on record?
Answer: The median enrichment was 0.411.

Question: Which median enrichment does the source give for “LAPASGLAIPLLSADYGVSTFGHNTYSPFTLYHSATNHRTDHLRLFLLALCVQDSLIHFCW [GIGYF2]” here?
Answer: Its median enrichment is 35.9.

Question: For “LAPLGLEFATGRILQRQVVPGPLLHPFSRRPCQRLHPVVNLVWRQRLRGWTSIVGQGLTLQGFCSWLWTPENPLLPSPNTRFL [FAM110A]”, which median enrichment is on record?
Answer: The median enrichment was 6.38.

Question: How did the median enrichment turn out when LAPRAEKMLGTHPAPPSTNTSGWGRGRTL [VPS26B] was run?
Answer: Its median enrichment is 1.3.

Question: With “LAPRPRETGWRHGAGPSFHGACGCRAGGAAESGPGPLPAGGDFFFSYF [GNA11]” as the substance, how does the median enrichment read?
Answer: The median enrichment was 11.8.

Question: For “LAQLPLSYSSATPQLPLSPAAARATARPGLSSARLTSARPAGLLKAVGRTPA [MED16]”, which median enrichment is on record?
Answer: The median enrichment was 5.35.

Question: For LARAPRGHLGRPREAEGHGVGGSRRVPASMVPALDLQLP, which median enrichment is on record?
Answer: Its median enrichment is 5.4.

Question: How did the median enrichment turn out when “LARAPSGGITDLMTTLALLPCRVQVLSPHFHLPAPRGPFPFMGLPPSDAQEGSSAMTGLLPLTSREHPLDLGRWWSQGWAAYF [PCDH1]” was run?
Answer: Its median enrichment is 6.44.

Question: How did the median enrichment turn out when LASCGPGNEMELTA [TSSK1B] was run?
Answer: Its median enrichment is 1.49.

Question: With LASDLPNDLLLAQLDARQARLSLC [BNC2] as the substance, how does the median enrichment read?
Answer: Its median enrichment is 4.33.

Question: Which median enrichment does the source give for “LATATALPVRQAPKGGGGMAQEEGCEEEEGEMAVASGSALQL [FAM228A]” here?
Answer: Its median enrichment is 0.27.

Question: Which median enrichment does the source give for LATWRNCLCTGCGPTLSS [MED12] here?
Answer: The median enrichment was 15.1.

Question: For “LAVGAHHLPDSQRENNLAKPIFDTGTFSSQFSLFSQKMI [C1orf105]”, which median enrichment is on record?
Answer: The median enrichment was 12.7.

Question: With “LAVWAPRGLALLPGLGEPRAALPWQRQDVGERSLVQ [GRK6]” as the substance, how does the median enrichment read?
Answer: The median enrichment was 3.3.

Question: Which median enrichment does the source give for “LAWDTEGPVRSIYCNSNCNLVLRRRESMFGQQNFSLSLKFTASISFPY [NUPR2]” here?
Answer: The median enrichment was 7.51.

Question: With LAWN [CLRN1] as the substance, how does the median enrichment read?
Answer: The median enrichment was 0.652.

Question: For LAYLLVFVLKCDLRFNV [TMEM70], which median enrichment is on record?
Answer: The median enrichment was 9.39.

Question: How did the median enrichment turn out when “LCDCSKLWCKIPPVSSHLPDFYLGLARTSSPSYQPSLPPSSHWTPALALPLG [LY6G5C]” was run?
Answer: Its median enrichment is 3.74.

Question: LCFAEIFCSLRISETYL [SIM1] was tested. Which median enrichment did it give?
Answer: The median enrichment was 7.43.

Question: How did the median enrichment turn out when LCLI [UBP1] was run?
Answer: The median enrichment was 3.44.

Question: For LCT [DUSP22], which median enrichment is on record?
Answer: The median enrichment was 1.23.

Question: Which median enrichment does the source give for “LDAIWIWGLGVCVGGGIKWLWAGLSFPTAGCHIYTISLVRFLYKNLLLT [LSMEM2]” here?
Answer: The median enrichment was 15.5.

Question: “LDALAMAQEKPARKNQTDFHTKEEASIFFFLFFIGVVTKPFRLLLFKI [QRICH1]” was tested. Which median enrichment did it give?
Answer: Its median enrichment is 10.6.

Question: How did the median enrichment turn out when “LDFMHSSERVTVTTVLSPISHKLLFVSKRMLLLLHCFPFAGTCWCLLLNWPALLAVWHCSLGRLLCSLYLHYRLVNLPTSSL [DCUN1D4]” was run?
Answer: Its median enrichment is 4.52.

Question: How did the median enrichment turn out when “LDLVQHGNDSYRLIQQLTLRQVVLFQRPLFLPKPCYELNQMCQVFSGVLSNILFSCMGTSPLQMTMLMDLFIYLFKSLFS [IFNA8]” was run?
Answer: Its median enrichment is 6.11.

Question: Which median enrichment does the source give for “LDPQVPLSKAENVHIPHWHFPKDKNCPRHILSV [VSX1]” here?
Answer: Its median enrichment is 10.

Question: How did the median enrichment turn out when LDRKEYERAIHHQTAHTGEK [ZNF573] was run?
Answer: Its median enrichment is 0.396.

Question: Which median enrichment does the source give for “LDRTCLRGRRTLAWAQESEAAFLLRGPSGESGPRYHARTLRGPVSCRRVSTFPPNPGLTALRSARRARAETRVGCGELKEPIK [UQCC3]” here?
Answer: The median enrichment was 3.74.

Question: How did the median enrichment turn out when LDRTWEPGGWEGQG [SLC35G6] was run?
Answer: The median enrichment was 0.429.

Question: Which median enrichment does the source give for LDVQDL [ZMPSTE24] here?
Answer: The median enrichment was 0.209.

Question: With LECRSAGRREE [CNPY1] as the substance, how does the median enrichment read?
Answer: Its median enrichment is 12.4.

Question: Which median enrichment does the source give for “LECSPFPCPGWQGRGRVKGMCCNTEDRKKKPLDTARDGG [ORMDL3]” here?
Answer: Its median enrichment is 48.4.

Question: How did the median enrichment turn out when “LEHWDAHRPFPSAARRACCGIYCGEHCIGMSGKSLYNLLQPSHLYNSLILFSFHNKMVYKNRSVCDVIGSNHPVLSSHSSW [COX10]” was run?
Answer: Its median enrichment is 1.73.

Question: For LEIEKKKRISTQVFFFRNEDKI [ZNF24], which median enrichment is on record?
Answer: Its median enrichment is 2.65.

Question: Which median enrichment does the source give for LEIPGFSDGPI [SLC39A2] here?
Answer: The median enrichment was 0.676.

Question: How did the median enrichment turn out when LEIWRIF [RNF148] was run?
Answer: The median enrichment was 9.09.

Question: How did the median enrichment turn out when LEKAIWDLITLNRHANTVCVRALCIQ [PCDH9] was run?
Answer: Its median enrichment is 9.37.

Question: Which median enrichment does the source give for “LEKPQVLLRLLSLPCQVSPVLTIQLGSTPFALLPCHTVLCLLFQVGMIMPSPANILQGPPNLIAGHSQPSESESRFLLSLPSS [PGLYRP4]” here?
Answer: Its median enrichment is 7.65.

Question: With “LEKPSSFVETVALQPWRRTCWYLKNGTFATQD [DOCK8]” as the substance, how does the median enrichment read?
Answer: The median enrichment was 6.15.

Question: LELLCFDS [MAP4K3] was tested. Which median enrichment did it give?
Answer: The median enrichment was 2.88.

Question: LELLPCPSFPPCTT [FEZF2] was tested. Which median enrichment did it give?
Answer: The median enrichment was 1.27.

Question: For LEMKKDEVLTQ [DNAJC5G], which median enrichment is on record?
Answer: Its median enrichment is 0.255.

Question: For LEPAAPASHLCLERTSAACQF [ECHS1], which median enrichment is on record?
Answer: Its median enrichment is 0.709.

Question: How did the median enrichment turn out when “LEPWGWGRGCQLHSGTLGRWASERLLTGSGASRCQAASGPLGCPGQACEEGLRWGRQGAPGSRDHR [RPUSD1]” was run?
Answer: The median enrichment was 5.25.

Question: For LEQ [UNC93A], which median enrichment is on record?
Answer: Its median enrichment is 0.561.

Question: With LETIMKKRVHISISKS [CTLA4] as the substance, how does the median enrichment read?
Answer: The median enrichment was 37.7.

Question: Which median enrichment does the source give for “LEVVFGVQLLPCTFSLLLSSSTPNRENLGVSGSIWALIYSPSFLSML [ZNF774]” here?
Answer: Its median enrichment is 9.71.

Question: “LFCCCIYTSKGPDLLLLKLFFKTWNYKEIRSSITFDTNFYRN [TTC13]” was tested. Which median enrichment did it give?
Answer: The median enrichment was 5.88.

Question: LFD [RBM26] was tested. Which median enrichment did it give?
Answer: Its median enrichment is 1.04.

Question: For LFDDRDLH [VAMP4], which median enrichment is on record?
Answer: The median enrichment was 0.625.

Question: For LFE [OR12D2], which median enrichment is on record?
Answer: The median enrichment was 0.755.

Question: “LFILEINLTNVMNVEKLLRGSWPLVNTREFILERNPTFVKNVAKPLSAPQPLQATREFIWKRDLTNVKNAAKPVFLRPD [ZNF727]” was tested. Which median enrichment did it give?
Answer: The median enrichment was 15.7.

Question: “LFIRSHGPITITLFSAFLLSSFLLSSPLLSSPLLPSPLCFFFFFFSFLWRSFALVAQAAVQWLNLGSLQPLPPRFK [GFRAL]” was tested. Which median enrichment did it give?
Answer: The median enrichment was 7.15.

Question: For LFLNALPHIFRKSRELLP [OR5AU1], which median enrichment is on record?
Answer: Its median enrichment is 9.77.

Question: LFQPGPKPTGVCGRARTQEV [DNMT3B] was tested. Which median enrichment did it give?
Answer: Its median enrichment is 3.86.

Question: With LFRCYSSLLKDDENAECLFKCF [GABRA4] as the substance, how does the median enrichment read?
Answer: Its median enrichment is 13.1.

Question: How did the median enrichment turn out when LFSFQILGTETI [FBXO4] was run?
Answer: The median enrichment was 14.6.

Question: How did the median enrichment turn out when LFSSQLF [ADAM17] was run?
Answer: The median enrichment was 5.62.

Question: With LFSTEIQNISLTALRCVC [NIPSNAP3B] as the substance, how does the median enrichment read?
Answer: The median enrichment was 6.41.

Question: Which median enrichment does the source give for LFVKLCLIM [GPR112] here?
Answer: The median enrichment was 13.7.

Question: How did the median enrichment turn out when LGALPGTGSLTSQD [KIF19] was run?
Answer: Its median enrichment is 0.309.
